This note sets out measurements from US20060228334A1.

The experiment deals with coxsackievirus-adenovirus receptor (CAR) on 293 cells (human) (UniProt P78310). The experiment in a line: cell-based or functional assay.
Chain of UniProt P78310 (P78310 20-365): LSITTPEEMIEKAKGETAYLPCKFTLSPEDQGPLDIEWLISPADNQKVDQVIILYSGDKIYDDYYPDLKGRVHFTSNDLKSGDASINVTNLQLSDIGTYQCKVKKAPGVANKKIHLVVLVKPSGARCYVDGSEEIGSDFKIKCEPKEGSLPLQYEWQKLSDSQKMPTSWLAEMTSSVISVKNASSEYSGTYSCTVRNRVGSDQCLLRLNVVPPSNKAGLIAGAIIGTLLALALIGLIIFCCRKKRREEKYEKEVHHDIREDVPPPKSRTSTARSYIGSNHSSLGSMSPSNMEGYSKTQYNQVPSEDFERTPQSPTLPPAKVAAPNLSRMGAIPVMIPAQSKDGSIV

For the substance “Ad5 fiber Lys506Gln/His508Lys (virus Ad-LacZ/Fb-Lys506Q/His508Lys) (from UniProt P11818 1-581)”, the IU/Particle (infectious units titrated on 293 cells per particle) was determined as 0.000769 IU/Particle.

In turn, “Ad5 fiber Ser408Glu (virus Ad-LacZ/Fb-S408E) (from UniProt P11818 1-581)” returned an IU/Particle (infectious units titrated on 293 cells per particle) of 9.54e-05 IU/Particle.

Substance “Ad5 fiber Ser408Glu and Ser555Lys (virus Ad-LacZ/Fb-S408E/S555K) (from UniProt P11818 1-581)” had an IU/Particle (infectious units titrated on 293 cells per particle) of 6.38e-05 IU/Particle.

In the case of “Ad5 fiber Ser408Glu and Val452Lys (virus Ad-LacZ/Fb-S408E/V452K) (from UniProt P11818 1-581)”, the IU/Particle (infectious units titrated on 293 cells per particle) is 9.57e-05 IU/Particle.

On to “Ad5 fiber Ser408Glu and Lys506Gln/His508Lys (virus Ad-LacZ/Fb-S408E/K506Q/H508K) (from UniProt P11818 1-581)”, for which the IU/Particle (infectious units titrated on 293 cells per particle) is 0.00025 IU/Particle.

For “Ad5 fiber Ser555Lys (virus Ad-LacZ/Fb-Ser555Lys) (from UniProt P11818 1-581)”, the IU/Particle (infectious units titrated on 293 cells per particle) was determined as 0.025 IU/Particle.

On to “wild-type Ad5 fiber protein (as carried by the Ad-LacZ virus) (from UniProt P11818 1-581)”, for which the IU/Particle (infectious units titrated on 293 cells per particle) was 0.025 IU/Particle and the inhibition of infection of 293 cells by 10 ug/ml recombinant Ad5 knob (FIG. 2) turned out to be 90%.

Substance “Ad5 fiber Val452Lys (virus Ad-LacZ/Fb-Val452Lys) (from UniProt P11818 1-581)” yielded an IU/Particle (infectious units titrated on 293 cells per particle) of 0.002 IU/Particle.

With “Ad5 fiber Thr404Gly (virus Ad-LacZ/Fb-Thr404gly) (from UniProt P11818 1-581)”, the IU/Particle (infectious units titrated on 293 cells per particle) was 8.33e-05 IU/Particle.

In turn, “Ad5 fiber Ala406Lys (virus Ad-LacZ/Fb-Ala406Lys) (from UniProt P11818 1-581)” displayed an IU/Particle (infectious units titrated on 293 cells per particle) of 0.000125 IU/Particle.
